Results on 2 substances are retold here after patent publication EP0699075B1.

Test [1] addresses purified recombinant soluble tissue factor (UniProt P13726). As to the kind of experiment: cell-based or functional assay.
Test [2] concerns the target cell-surface tissue factor on rat vascular smooth muscle cells (rat) (UniProt P42533). As to the kind of experiment: cell-based or functional assay.
UniProt P42533, sequence (P42533 29-295): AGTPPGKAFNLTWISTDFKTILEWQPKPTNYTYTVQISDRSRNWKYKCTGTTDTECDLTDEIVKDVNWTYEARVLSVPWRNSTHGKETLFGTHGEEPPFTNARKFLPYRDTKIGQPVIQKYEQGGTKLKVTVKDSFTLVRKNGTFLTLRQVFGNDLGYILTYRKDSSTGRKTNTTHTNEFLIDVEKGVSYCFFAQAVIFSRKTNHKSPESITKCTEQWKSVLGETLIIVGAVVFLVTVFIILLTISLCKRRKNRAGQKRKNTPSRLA

UniProt P13726, sequence (P13726 33-251 limits assumed): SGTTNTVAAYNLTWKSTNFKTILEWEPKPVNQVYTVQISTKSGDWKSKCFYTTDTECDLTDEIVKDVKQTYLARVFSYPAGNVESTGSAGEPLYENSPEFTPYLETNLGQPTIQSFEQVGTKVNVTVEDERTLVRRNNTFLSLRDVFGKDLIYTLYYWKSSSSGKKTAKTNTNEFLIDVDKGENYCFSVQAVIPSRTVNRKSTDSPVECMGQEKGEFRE

On to DEGR-Factor VIIa (enzyme), for which, in test [1], the OD405, Factor Xa chromogenic activity (S-2222), DEGR-Factor VIIa 0 nM with 100 nM Factor VIIa and soluble tissue factor (cell read as 0 | 0.810) came out at 0.81 OD405; the OD405, Factor Xa chromogenic activity (S-2222), DEGR-Factor VIIa 5 nM with 100 nM Factor VIIa and soluble tissue factor (cell read as 5 | 0.750) amounted to 0.75 OD405; the OD405, Factor Xa chromogenic activity (S-2222), DEGR-Factor VIIa 10 nM with 100 nM Factor VIIa and soluble tissue factor (cell read as 10 | 0.609) was 0.609 OD405; the OD405, Factor Xa chromogenic activity (S-2222), DEGR-Factor VIIa 20 nM with 100 nM Factor VIIa and soluble tissue factor (cell read as 20 | 0.296) was determined as 0.296 OD405. Besides, in test [1], the OD405, Factor Xa chromogenic activity (S-2222), DEGR-Factor VIIa 40 nM with 100 nM Factor VIIa and soluble tissue factor (cell read as 40 | 0.167) was 0.167 OD405; the OD405, Factor Xa chromogenic activity (S-2222), DEGR-Factor VIIa 80 nM with 100 nM Factor VIIa and soluble tissue factor (cell read as 80 | 0.083) amounted to 0.083 OD405; the OD405, Factor Xa chromogenic activity (S-2222), DEGR-Factor VIIa 160 nM with 100 nM Factor VIIa and soluble tissue factor (cell read as 160 | 0.055) was found to be 0.055 OD405. Besides, in test [2], the OD405, Factor Xa chromogenic activity (S-2222) on rat smooth muscle cells, DEGR-Factor VIIa 0.00 nM coincubated with 100 nM Factor VIIa amounted to 0.208 OD405; the OD405, Factor Xa chromogenic activity (S-2222) on rat smooth muscle cells, DEGR-Factor VIIa 0.39 nM coincubated with 100 nM Factor VIIa was determined as 0.176 OD405; the OD405, Factor Xa chromogenic activity (S-2222) on rat smooth muscle cells, DEGR-Factor VIIa 1.56 nM coincubated with 100 nM Factor VIIa amounted to 0.116 OD405; the OD405, Factor Xa chromogenic activity (S-2222) on rat smooth muscle cells, DEGR-Factor VIIa 6.25 nM coincubated with 100 nM Factor VIIa stood at 0.073 OD405. Besides, in test [2], the OD405, Factor Xa chromogenic activity (S-2222) on rat smooth muscle cells, DEGR-Factor VIIa 25.00 nM coincubated with 100 nM Factor VIIa amounted to 0.026 OD405; the OD405, Factor Xa chromogenic activity (S-2222) on rat smooth muscle cells, DEGR-Factor VIIa 100.00 nM coincubated with 100 nM Factor VIIa was determined as 0.014 OD405; the OD405, Factor Xa chromogenic activity (S-2222) on serum-stimulated rat smooth muscle cells, 10 nM Factor VIIa + 100 nM DEGR-Factor VIIa turned out to be 0.073 OD405; the inhibition of chromogenic activity at a 1:1 molar ratio of DEGR-Factor VIIa:Factor VIIa on rat smooth muscle cells turned out to be 95%.

In test [2], recombinant human Factor VIIa (enzyme) yielded an OD405, Factor Xa chromogenic activity (S-2222) on PDGF-BB-stimulated rat smooth muscle cells, 10 nM Factor VIIa, cells washed before Factor X was added of 0.36 OD405; an OD405, Factor Xa chromogenic activity (S-2222) on rat smooth muscle cells stimulated with 10% FCS, 10 nM Factor VIIa, cells washed before Factor X was added of 0.342 OD405; an OD405, Factor Xa chromogenic activity (S-2222) on rat smooth muscle cells, Factor VIIa 0.10 nM of 0.005 OD405; an OD405, Factor Xa chromogenic activity (S-2222) on rat smooth muscle cells, Factor VIIa 0.39 nM of 0.025 OD405. In test [2], the OD405, Factor Xa chromogenic activity (S-2222) on rat smooth muscle cells, Factor VIIa 1.56 nM was found to be 0.058 OD405; the OD405, Factor Xa chromogenic activity (S-2222) on rat smooth muscle cells, Factor VIIa 6.25 nM came to 0.111 OD405; the OD405, Factor Xa chromogenic activity (S-2222) on rat smooth muscle cells, Factor VIIa 25.00 nM was determined as 0.154 OD405; the OD405, Factor Xa chromogenic activity (S-2222) on rat smooth muscle cells, Factor VIIa 100.00 nM came out at 0.208 OD405. For the same substance, in test [2], the OD405, Factor Xa chromogenic activity (S-2222) on serum-stimulated rat smooth muscle cells, 10 nM Factor VIIa alone turned out to be 0.342 OD405 and the OD405, Factor Xa chromogenic activity (S-2222) on unstimulated rat smooth muscle cells (Intrinsic), 10 nM Factor VIIa, cells washed before Factor X was added was determined as 0.247 OD405.
